Columns and labels:
[1] = target: T1, human soluble urokinase plasminogen activator receptor (suPAR) (human, UniProt Q03405 23-303, limits assumed); test: off-rate (kdis) screen of scFv clones, biosensor (Octet)
T1 construct: Target antigen of the off-rate screen; also called hsuPAR; human suPAR
T1 sequence (Q03405 23-303 limits assumed): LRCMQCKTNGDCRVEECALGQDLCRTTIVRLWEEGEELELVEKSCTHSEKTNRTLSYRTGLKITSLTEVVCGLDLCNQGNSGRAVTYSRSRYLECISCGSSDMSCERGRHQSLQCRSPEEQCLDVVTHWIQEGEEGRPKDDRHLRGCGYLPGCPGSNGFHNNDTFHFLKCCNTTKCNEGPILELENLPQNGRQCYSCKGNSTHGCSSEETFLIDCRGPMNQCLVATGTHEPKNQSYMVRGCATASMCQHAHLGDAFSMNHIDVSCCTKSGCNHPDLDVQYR

[2] = target: T2, human soluble urokinase plasminogen activator receptor (suPAR) (human, UniProt Q03405 23-303, limits assumed); test: BLI (Octet) off-rate screen of scFv clones
T2 construct: Target antigen of the scFv off-rate screen; also called hsuPAR; human suPAR
T2 sequence (Q03405 23-303 limits assumed): as above

[3] = target: T3, cynomolgus soluble urokinase plasminogen activator receptor (suPAR) (cynomolgus, UniProt Q9GK78 23-303, limits assumed); test: BLI (Octet) off-rate screen of scFv clones
T3 construct: Target antigen of the scFv off-rate screen; also called cynomolgus suPAR; cynomolgus uPAR
Target sequence in this assay (Q9GK78 23-303 limits assumed): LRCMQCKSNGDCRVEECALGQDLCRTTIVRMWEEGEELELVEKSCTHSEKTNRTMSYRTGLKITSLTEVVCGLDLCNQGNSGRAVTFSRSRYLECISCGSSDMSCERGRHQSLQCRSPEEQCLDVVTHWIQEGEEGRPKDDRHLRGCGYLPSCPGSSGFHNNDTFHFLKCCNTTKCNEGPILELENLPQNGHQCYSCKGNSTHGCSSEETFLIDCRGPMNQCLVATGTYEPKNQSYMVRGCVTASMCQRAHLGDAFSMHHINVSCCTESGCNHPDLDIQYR

[4] = target: T4, cynomolgus soluble urokinase plasminogen activator receptor (suPAR) (cynomolgus, UniProt Q9GK78 23-303, limits assumed); test: off-rate (kdis) screen of scFv clones, biosensor (Octet)
T4 construct: Target antigen of the off-rate screen; also called cynomolgus uPAR; cynomolgus suPAR
Target sequence in this assay (Q9GK78 23-303 limits assumed): as above

[5] = target: T5, human soluble urokinase plasminogen activator receptor (hsuPAR) (human, UniProt Q03405 23-303, limits assumed); test: BLI (Octet) off-rate screen of scFv clones
T5 construct: Target antigen of the off-rate screen; also called human suPAR; rhuPAR-His
T5 sequence (Q03405 23-303 limits assumed): as the sequence (Q03405 23-303 limits assumed) above

[6] = target: T6, human soluble urokinase plasminogen activator receptor (hsuPAR) (human, UniProt Q03405 23-303, limits assumed); test: off-rate screen of scFv clones (kdis), Octet BLI
T6 construct: also called human suPAR; rhuPAR-His
T6 sequence (Q03405 23-303 limits assumed): as above

B1: suPAR_DB01_A02 (scFv, V domains shown)
VH: EVQLEESGAELVRPGALVKLSCKASGFNIKDYYIHWVKQRPEQGLEWIGWIDHENGNTIYDPKFQGKASITLDTSSNTAYLQLNSLTSEDTAVYYCARGYDVDWFVYWGQGTLVTVSS
VL: QIVLTQSPAIMSASPGEKVTIYCSARSSVSYMYWYQQKPGSSPKPWIYRTSNLASGVPARFSGSGSGTSYSLTISSMEAEDAATYYCQQYHSYPPTFGGGTKLEIK
notes: screened as scFv
In the case of B1, the koff [1] is reported as 3.54e-07 s⁻¹.

B2: suPAR_DB06_G03 (scFv, V domains shown)
VH: QVQLVQSGAEVKKPGASVKVSCKASGYTFSSYYMHWVRQAPGQGLEWMGWIDPEGGNTIYAQKFQGRVTMTRDTSTSTVYMELSSLRSEDTAVYYCARGYDVDWFVYWGQGTLVTVSS
VL: DIQMTQSPSSLSASVGDRVTITCSARSSVSYMYWYQQKPGKAPKLLIYRTSNLASGVPSRFSGSGSGTDFTLTISSLQPEDFATYYCQQYHSYPPTFGGGTKVEIK
Work on B2 yielded a koff [2] of 0.00381 s⁻¹ and a koff [3] of 0.000231 s⁻¹.

B3: suPAR_DB06_E01 (scFv, V domains shown)
VH: QVQLVQSGAEVKKPGASVKVSCKASGFNFKDYYIHWVRQAPGQGLEWMGWMDPSSGNTAYAQKFQGRVTMTRDTSTSTVYMELSSLRSEDTAVYYCARGYDVDWFVYWGQGTLVTVSS
VL: DIQMTQSPSSLSASVGDRVTITCSARQSISYMYWYQQKPGKAPKLLIYRTSNLASGVPSRFSGSGSGTDFTLTISSLQPEDFATYYCQQYHSYPPTFGGGTKVEIK
Work on B3 yielded a koff [2] of 0.00483 s⁻¹ and a koff [3] of 0.000126 s⁻¹.

B4: suPAR_DB01_C01 (scFv, V domains shown)
VH: QVQLVQSGAEVKKPGASVKVSCKASGYTFTGYYMHWVRQAPGQGLEWMGWIDHENGNTIYDQKFQGRVTMTRDTSTSTVYMELSSLRSEDTAVYYCARGYDVDWFVYWGQGTLVTVSS
VL: DIQMTQSPSSLSASVGDRVTITCSARSSVSYMYWYQQKPGKAPKLLIYRTSNLASGVPSRFSGSGSGTDFTLTISSLQPEDFATYYCQQYHSYPPTFGGGTKVEIK
notes: screened as scFv
Work on B4 yielded a koff [1] of 0.00122 s⁻¹ and a koff [4] of 0.000266 s⁻¹.

B5: suPAR_DB06_C05 (scFv, V domains shown)
VH: QVQLVQSGAEVKKPGASVKVSCKASGGTFSSYAISWVRQAPGQGLEWMGVIDPSGGTTDYAQKFQGRVTMTRDTSTSTVYMELSSLRSEDTAVYYCARGYDVDWFVYWGQGTLVTVSS
VL: DIQMTQSPSSLSASVGDRVTITCRTSQSISSFLNWYQQKPGKAPKLLIYDVSHLESGVPSRFSGSGSGTDFTLTISSLQPEDFATYYCQQYHSYPPTFGGGTKVEIK
In the case of B5, the koff [2] is reported as 0.373 s⁻¹ and the koff [3] is reported as 0.0623 s⁻¹.

B6: suPAR_DB03_A12 (scFv, V domains shown)
VH: QVQLVQSGAEVKKPGASVKVSCKASGYTFSRYYMHWVRQAPGQGLEWIGWMNPNTGDTGYAQKFQGRVTMTRDTSTSTVYMELSSLRSEDTAVYYCARGYDVDFFVYWGQGTLVTVSS
VL: DIQMTQSPSSLSASVGDRVTITCRASQGISGWLAWYQQKPGKAPKLLIYDASSLQSGVPSRFSGSGSGTDFTLTISSLQPEDFATYYCQQSYSDPLTFGGGTKVEIK
notes: screened as scFv
In the case of B6, the koff [5] is reported as 0.0544 s⁻¹.

B7: suPAR_DB06_G06 (scFv, V domains shown)
VH: QVQLVQSGAEVKKPGASVKVSCKASGFTFTAYYMHWVRQAPGQGLEWMGWIDPENGNTIYAQKFQGRVTMTRDTSTSTVYMELSSLRSEDTAVYYCARGYDVDWFVYWGQGTLVTVSS
VL: DIQMTQSPSSLSASVGDRVTITCSASQSVSYMYWYQQKPGKAPKLLIYRTSNLASGVPSRFSGSGSGTDFTLTISSLQPEDFATYYCQQYHSYPPTFGGGTKVEIK
B7 gave a koff [2] of 0.00431 s⁻¹ and a koff [3] of 5.28e-07 s⁻¹.

B8: suPAR_DB01_A03 (scFv, V domains shown)
VH: QVQLVQSGAEVKKPGASVKVSCKASGYTFTSNYIHWVRQAPGQGLEWMGWIDHENGSTSYDQKFQGRVTMTRDTSTSTVYMELSSLRSEDTAVYYCARGYDVDWFVYWGQGTLVTVSS
VL: DIQMTQSPSSLSASVGDRVTITCSARSSVSYMYWYQQKPGKAPKLLIYRTSNLASGVPSRFSGSGSGTDFTLTISSLQPEDFATYYCQQYHSYPPTFGGGTKVEIK
notes: screened as scFv
With B8 the koff [1] was 0.00256 s⁻¹ and the koff [4] was 0.000231 s⁻¹.

B9: suPAR_DB01_A11 (scFv, V domains shown)
VH: QVQLVQSGAEVKKPGASVKVSCKASGYTFTNYYMHWVRQAPGQGLEWMGWIDHENGNTIYDQKFQGRVTMTRDTSTSTVYMELSSLRSEDTAVYYCARGYDVDWFVYWGQGTLVTVSS
VL: DIQMTQSPSSLSASVGDRVTITCSASQSVSYMYWYQQKPGKAPKLLIYRTSNLASGVPSRFSGSGSGTDFTLTISSLQPEDFATYYCQQYHSYPPTFGGGTKVEIK
notes: screened as scFv
B9 was tested, and the koff [1] was 0.0015 s⁻¹ and the koff [4] was 0.000479 s⁻¹.

B10: suPAR_DB04_E02 (scFv, V domains shown)
VH: QVQLVQSGAEVKKPGASVKVSCKASGYTFTSYYMHWVRQAPGQGLEWMGWIDPENGSTIYDQKFQGRVTMTRDTSTSTVYMELSSLRSEDTAVYYCARGYDVDWFVYWGQGTLVTVSS
VL: DIQMTQSPSSLSASVGDRVTITCRARSSVSYMYWYQQKPGKAPKLLIYATSNLASGVPSRFSGSGSGTDFTLTISSLQPEDFATYYCQQYHSYPPTFGGGTKVEIK
notes: scFv clone from phage display
With B10 the koff [6] was 0.00497 s⁻¹.

B11: suPAR_DB01_B02 (scFv, V domains shown)
VH: QVQLVQSGAEVKKPGASVKVSCKASGYTFTNYYMHWVRQAPGQGLEWMGWIDHENGNTIYDQKFQGRVTMTRDTSTSTVYMELSSLRSEDTAVYYCARGYDVDWFVYWGQGTLVTVSS
VL: DIQMTQSPSSLSASVGDRVTITCSARSSVSYMYWYQQKPGKAPKLLIYRTSNLASGVPSRFSGSGSGTDFTLTISSLQPEDFATYYCQQYHSYPPTFGGGTKVEIK
notes: screened as scFv
B11 gave a koff [1] of 0.00142 s⁻¹ and a koff [4] of 0.000177 s⁻¹.

B12: suPAR_DB01_A04 (scFv, V domains shown)
VH: QVQLVQSGAEVKKPGASVKVSCKASGYTFTGYYMHWVRQAPGQGLEWMGWIDHENGNTIYDQKFQGRVTMTRDTSTSTVYMELSSLRSEDTAVYYCARGYDVDWFVYWGQGTLVTVSS
VL: DIQMTQSPSSLSASVGDRVTITCSASQSVSYMYWYQQKPGKAPKLLIYRTSNLASGVPSRFSGSGSGTDFTLTISSLQPEDFATYYCQQYHSYPPTFGGGTKVEIK
notes: screened as scFv
B12 gave a koff [1] of 0.000911 s⁻¹ and a koff [4] of 0.00021 s⁻¹.

B13: suPAR_DB01_A06 (scFv, V domains shown)
VH: QVQLVQSGAEVKKPGASVKVSCKASGYTFTSYYMHWVRQAPGQGLEWMGWIDHENGNTIYDQKFQGRVTMTRDTSTSTVYMELSSLRSEDTAVYYCARGYDVDWFVYWGQGTLVTVSS
VL: DIQMTQSPSSLSASVGDRVTITCRARQSVSYMYWYQQKPGKAPKLLIYRTSNLASGVPSRFSGSGSGTDFTLTISSLQPEDFATYYCQQYHSYPPTFGGGTKVEIK
notes: screened as scFv
With B13 the koff [1] was 0.00253 s⁻¹ and the koff [4] was 4.27e-07 s⁻¹.

B14: suPAR_DB01_A05 (scFv, V domains shown)
VH: QVQLVQSGAEVKKPGASVKVSCKASGYTFTGYYMHWVRQAPGQGLEWMGWIDHENGNTIYDQKFQGRVTMTRDTSTSTVYMELSSLRSEDTAVYYCARGYDVDWFVYWGQGTLVTVSS
VL: DIQMTQSPSSLSASVGDRVTITCRARQSVSYMYWYQQKPGKAPKLLIYRTSNLASGVPSRFSGSGSGTDFTLTISSLQPEDFATYYCQQYHSYPPTFGGGTKVEIK
notes: screened as scFv
For B14, the koff [1] was 0.00174 s⁻¹ and the koff [4] was 0.000326 s⁻¹.

B15: suPAR_DB06_G04 (scFv, V domains shown)
VH: QVQLVQSGAEVKKPGASVKVSCKASGYTFTGYYMHWVRQAPGQGLEWMGWINPEGGSTNYEQKFQGRVTMTRDTSTSTVYMELSSLRSEDTAVYYCARGYDVDWFVYWGQGTLVTVSS
VL: DIQMTQSPSSLSASVGDRVTITCSARYSVSYMYWYQQKPGKAPKLLIYRTSNLASGVPSRFSGSGSGTDFTLTISSLQPEDFATYYCQQYHSYPPTFGGGTKVEIK
B15 gave a koff [2] of 0.00549 s⁻¹ and a koff [3] of 0.000223 s⁻¹.

B16: suPAR_DB01_A10 (scFv, V domains shown)
VH: QVQLVQSGAEVKKPGASVKVSCKASGYTFSNYYMHWVRQAPGQGLEWMGWIDHENGNTIYDQKFQGRVTMTRDTSTSTVYMELSSLRSEDTAVYYCARGYDVDWFVYWGQGTLVTVSS
VL: DIQMTQSPSSLSASVGDRVTITCSARSSVSYMYWYQQKPGKAPKLLIYRTSNLASGVPSRFSGSGSGTDFTLTISSLQPEDFATYYCQQYHSYPPTFGGGTKVEIK
notes: screened as scFv
B16 was tested, and the koff [1] was 0.00194 s⁻¹ and the koff [4] was 0.000299 s⁻¹.

B17: suPAR_DB01_A12 (scFv, V domains shown)
VH: QVQLVQSGAEVKKPGASVKVSCKASGYTFTGYYMHWVRQAPGQGLEWMGWIDPEGGNTIYAQKFQGRVTMTRDTSTSTVYMELSSLRSEDTAVYYCARGYDVDWFVYWGQGTLVTVSS
VL: DIQMTQSPSSLSASVGDRVTITCSARSSVSYMYWYQQKPGKAPKLLIYRTSNLASGVPSRFSGSGSGTDFTLTISSLQPEDFATYYCQQYHSYPPTFGGGTKVEIK
notes: screened as scFv
B17 gave a koff [1] of 0.00128 s⁻¹ and a koff [4] of 0.000142 s⁻¹.

B18: suPAR_DB01_A07 (scFv, V domains shown)
VH: QVQLVQSGAEVKKPGASVKVSCKASGGTFTSYYMHWVRQAPGQGLEWMGWIDHENGSTSYDQKFQGRVTMTRDTSTSTVYMELSSLRSEDTAVYYCARGYDVDWFVYWGQGTLVTVSS
VL: DIQMTQSPSSLSASVGDRVTITCSARSSVSYMYWYQQKPGKAPKLLIYRTSNLASGVPSRFSGSGSGTDFTLTISSLQPEDFATYYCQQYHSYPPTFGGGTKVEIK
notes: screened as scFv
For B18, the koff [1] was 0.00571 s⁻¹ and the koff [4] was 0.00156 s⁻¹.

B19: suPAR_DB01_B01 (scFv, V domains shown)
VH: QVQLVQSGAEVKKPGASVKVSCKASGYTFTDYYMHWVRQAPGQGLEWMGWIDHENGNTIYDQKFQGRVTMTRDTSTSTVYMELSSLRSEDTAVYYCARGYDVDWFVYWGQGTLVTVSS
VL: DIQMTQSPSSLSASVGDRVTITCSASQSVSYMYWYQQKPGKAPKLLIYRTSNLASGVPSRFSGSGSGTDFTLTISSLQPEDFATYYCQQYHSYPPTFGGGTKVEIK
notes: screened as scFv
Work on B19 yielded a koff [1] of 0.0028 s⁻¹ and a koff [4] of 4.88e-07 s⁻¹.

Reference: US20250215104A1 (WALDEN BIOSCIENCES, published 2025)
